Assay results as given in US20050043234A1.

Target: zFGF5 (human) (UniProt O76093)
Assay: cell-based or functional assay

Chain of zFGF5 (human) (O76093 28-207): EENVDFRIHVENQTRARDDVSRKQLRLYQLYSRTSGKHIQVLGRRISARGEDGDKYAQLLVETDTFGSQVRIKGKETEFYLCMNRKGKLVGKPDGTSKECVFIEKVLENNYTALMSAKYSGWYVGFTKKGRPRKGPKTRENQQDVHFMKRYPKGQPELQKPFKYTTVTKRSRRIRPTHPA

Cell Proliferation (percent of control), BAF3/FGFR3α-IIIc cells with zFGF5, soluble receptor at 0 fold-excess (percent of control): 100
Cell Proliferation (percent of control), BAF3/FGFR3α-IIIc cells with zFGF5, soluble receptor at 62.5 fold-excess (percent of control): 101
Cell Proliferation (percent of control), BAF3/FGFR3α-IIIc cells with zFGF5, soluble receptor at 125 fold-excess (percent of control): 90
Cell Proliferation (percent of control), BAF3/FGFR3α-IIIc cells with zFGF5, soluble receptor at 250 fold-excess (percent of control): 91
Cell Proliferation (percent of control), BAF3/FGFR3α-IIIc cells with zFGF5, soluble receptor at 500 fold-excess (percent of control): 101
Cell Proliferation (percent of control), BAF3/FGFR3α-IIIc cells with zFGF5, soluble receptor at 1000 fold-excess (percent of control): 99
Substance: FGFR2α-IIIb/Fc (from UniProt P21802 22-378) (Fc fusion)
